Measured values as given in patent US20220064329A1 (Novo Nordisk, published 2022).
Positions count from the first letter of the chain named. Names may count otherwise.

T1: recombinant human activated Factor VII (FVIIa) (human, UniProt P08709 61-212; P08709 213-466, ten glutamate residues of the Gla domain may be gamma-carboxylated)
T1 construct: chains tethered by a disulfide bond; also called Factor VIIa; rFVIIa
T1 sequence 1: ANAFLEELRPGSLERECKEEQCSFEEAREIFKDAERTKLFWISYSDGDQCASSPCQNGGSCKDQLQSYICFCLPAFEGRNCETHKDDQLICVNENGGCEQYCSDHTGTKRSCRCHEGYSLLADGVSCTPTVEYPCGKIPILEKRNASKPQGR
T1 sequence 2: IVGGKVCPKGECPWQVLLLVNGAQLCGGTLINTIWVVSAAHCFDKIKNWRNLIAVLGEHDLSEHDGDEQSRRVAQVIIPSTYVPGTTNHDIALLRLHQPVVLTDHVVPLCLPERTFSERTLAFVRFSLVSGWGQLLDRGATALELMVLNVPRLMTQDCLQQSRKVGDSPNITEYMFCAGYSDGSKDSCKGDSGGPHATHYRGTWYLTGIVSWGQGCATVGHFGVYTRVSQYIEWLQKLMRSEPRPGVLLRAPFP

B1: VH SEQ ID NO 570 / VL SEQ ID NO 358 (antibody, IgG4, V domains shown)
VH: QVQLQESGPGLVKPSDTLSLTCAVSGYSISSDSAWSWIRQPPGKGLEWIGYIQYSGSTNYNPSLKSRVTMSRDTSKNQFSLKLSSVTAADTAVYYCARSVNYYGNSFAVGPWGQGTLVTVSS
VL: EIVLTQSPATLSLSPGERATLSCRASQGISDYLHWYQQKPGQAPRLLIKYTSQPATGIPARFSGSGSGTDFTLTISSLEPEDFAVYYCQNGHSFPLTFGQGTKLEIK
notes: humanized 11F2; IgG4 S228P/kappa
B2: VH SEQ ID NO 570 / VL SEQ ID NO 366 (antibody, IgG4, V domains shown)
VH: B1 VH
VL: B1 VL with I29L, H34A, Q42E, T51A
notes: as for B1
B3: VH SEQ ID NO 570 / VL SEQ ID NO 382 (antibody, IgG4, V domains shown)
VH: B1 VH
VL: B1 VL with I29L, Q42E, T51A
notes: as for B1
B4: VH SEQ ID NO 570 / VL SEQ ID NO 390 (antibody, IgG4, V domains shown)
VH: B1 VH
VL: B1 VL with I29V, H34A, Q42E, T51A
notes: as for B1
B5: VH SEQ ID NO 570 / VL SEQ ID NO 398 (antibody, IgG4, V domains shown)
VH: B1 VH
VL: B1 VL with I29V, H34A, Q42E
notes: as for B1
B6: VH SEQ ID NO 570 / VL SEQ ID NO 406 (antibody, IgG4, V domains shown)
VH: B1 VH
VL: B1 VL with I29V, H34A, T51A, Q100A
notes: as for B1
B7: VH SEQ ID NO 570 / VL SEQ ID NO 414 (antibody, IgG4, V domains shown)
VH: B1 VH
VL: B1 VL with I29V, H34A, T51A
notes: as for B1
B8: VH SEQ ID NO 570 / VL SEQ ID NO 422 (antibody, IgG4, V domains shown)
VH: B1 VH
VL: B1 VL with I29V, H34A, T51A, N90Q
notes: as for B1
B9: VH SEQ ID NO 570 / VL SEQ ID NO 430 (antibody, IgG4, V domains shown)
VH: B1 VH
VL: B1 VL with I29V, H34A, T51A, A84G
notes: as for B1
B10: VH SEQ ID NO 570 / VL SEQ ID NO 438 (antibody, IgG4, V domains shown)
VH: B1 VH
VL: B1 VL with I29V, H34A, T51A, F83V
notes: as for B1
B11: VH SEQ ID NO 570 / VL SEQ ID NO 446 (antibody, IgG4, V domains shown)
VH: B1 VH
VL: B1 VL with I29V, H34A
notes: as for B1
B12: VH SEQ ID NO 570 / VL SEQ ID NO 454 (antibody, IgG4, V domains shown)
VH: B1 VH
VL: B1 VL with I29V, Q42E, T51A
notes: as for B1
B13: VH SEQ ID NO 570 / VL SEQ ID NO 462 (antibody, IgG4, V domains shown)
VH: B1 VH
VL: B1 VL with I29V, T51A, Q100A
notes: as for B1
B14: VH SEQ ID NO 570 / VL SEQ ID NO 470 (antibody, IgG4, V domains shown)
VH: B1 VH
VL: B1 VL with I29V, T51A
notes: as for B1
B15: VH SEQ ID NO 570 / VL SEQ ID NO 478 (antibody, IgG4, V domains shown)
VH: B1 VH
VL: B1 VL with I29V, T51A, N90Q
notes: as for B1
B16: VH SEQ ID NO 570 / VL SEQ ID NO 486 (antibody, IgG4, V domains shown)
VH: B1 VH
VL: B1 VL with I29V, T51A, A84G
notes: as for B1
B17: VH SEQ ID NO 570 / VL SEQ ID NO 494 (antibody, IgG4, V domains shown)
VH: B1 VH
VL: B1 VL with I29V, T51A, F83V
notes: as for B1
B18: VH SEQ ID NO 570 / VL SEQ ID NO 502 (antibody, IgG4, V domains shown)
VH: B1 VH
VL: B1 VL with I29V
notes: as for B1
B19: VH SEQ ID NO 578 / VL SEQ ID NO 318 (antibody, IgG4, V domains shown)
VH: B1 VH with R72V, A89L
VL: B1 VL with Q42E
notes: as for B1
B20: VH SEQ ID NO 578 / VL SEQ ID NO 326 (antibody, IgG4, V domains shown)
VH: B1 VH with R72V, A89L
VL: B1 VL with Q42E, A84G, Q100A, I106L
notes: as for B1
B21: VH SEQ ID NO 578 / VL SEQ ID NO 334 (antibody, IgG4, V domains shown)
VH: B1 VH with R72V, A89L
VL: B1 VL with T51A
notes: as for B1
B22: VH SEQ ID NO 578 / VL SEQ ID NO 342 (antibody, IgG4, V domains shown)
VH: B1 VH with R72V, A89L
VL: B1 VL with T69R, Q100A, I106L
notes: as for B1
B23: VH SEQ ID NO 578 / VL SEQ ID NO 350 (antibody, IgG4, V domains shown)
VH: B1 VH with R72V, A89L
VL: B1 VL with Q100A, I106L
notes: as for B1
B24: VH SEQ ID NO 578 / VL SEQ ID NO 358 (antibody, IgG4, V domains shown)
VH: B1 VH with R72V, A89L
VL: B1 VL
notes: as for B1
B25: VH SEQ ID NO 578 / VL SEQ ID NO 382 (antibody, IgG4, V domains shown)
VH: B1 VH with R72V, A89L
VL: B1 VL with I29L, Q42E, T51A
notes: as for B1
B26: VH SEQ ID NO 578 / VL SEQ ID NO 430 (antibody, IgG4, V domains shown)
VH: B1 VH with R72V, A89L
VL: B1 VL with I29V, H34A, T51A, A84G
notes: as for B1
B27: VH SEQ ID NO 578 / VL SEQ ID NO 454 (antibody, IgG4, V domains shown)
VH: B1 VH with R72V, A89L
VL: B1 VL with I29V, Q42E, T51A
notes: as for B1
B28: VH SEQ ID NO 578 / VL SEQ ID NO 462 (antibody, IgG4, V domains shown)
VH: B1 VH with R72V, A89L
VL: B1 VL with I29V, T51A, Q100A
notes: as for B1
B29: VH SEQ ID NO 578 / VL SEQ ID NO 470 (antibody, IgG4, V domains shown)
VH: B1 VH with R72V, A89L
VL: B1 VL with I29V, T51A
notes: as for B1
B30: VH SEQ ID NO 578 / VL SEQ ID NO 478 (antibody, IgG4, V domains shown)
VH: B1 VH with R72V, A89L
VL: B1 VL with I29V, T51A, N90Q
notes: as for B1
B31: VH SEQ ID NO 578 / VL SEQ ID NO 486 (antibody, IgG4, V domains shown)
VH: B1 VH with R72V, A89L
VL: B1 VL with I29V, T51A, A84G
notes: as for B1
B32: VH SEQ ID NO 578 / VL SEQ ID NO 494 (antibody, IgG4, V domains shown)
VH: B1 VH with R72V, A89L
VL: B1 VL with I29V, T51A, F83V
notes: as for B1
B33: VH SEQ ID NO 578 / VL SEQ ID NO 502 (antibody, IgG4, V domains shown)
VH: B1 VH with R72V, A89L
VL: B1 VL with I29V
notes: as for B1
B34: VH SEQ ID NO 586 / VL SEQ ID NO 310 (antibody, IgG4, V domains shown)
VH: B1 VH with R72V, A89L, P111Y
VL: B1 VL with H34A, T51A
notes: as for B1
B35: VH SEQ ID NO 586 / VL SEQ ID NO 318 (antibody, IgG4, V domains shown)
VH: B1 VH with R72V, A89L, P111Y
VL: B1 VL with Q42E
notes: as for B1
B36: VH SEQ ID NO 586 / VL SEQ ID NO 326 (antibody, IgG4, V domains shown)
VH: B1 VH with R72V, A89L, P111Y
VL: B1 VL with Q42E, A84G, Q100A, I106L
notes: as for B1
B37: VH SEQ ID NO 586 / VL SEQ ID NO 334 (antibody, IgG4, V domains shown)
VH: B1 VH with R72V, A89L, P111Y
VL: B1 VL with T51A
notes: as for B1
B38: VH SEQ ID NO 586 / VL SEQ ID NO 342 (antibody, IgG4, V domains shown)
VH: B1 VH with R72V, A89L, P111Y
VL: B1 VL with T69R, Q100A, I106L
notes: as for B1
B39: VH SEQ ID NO 586 / VL SEQ ID NO 350 (antibody, IgG4, V domains shown)
VH: B1 VH with R72V, A89L, P111Y
VL: B1 VL with Q100A, I106L
notes: as for B1
B40: VH SEQ ID NO 586 / VL SEQ ID NO 358 (antibody, IgG4, V domains shown)
VH: B1 VH with R72V, A89L, P111Y
VL: B1 VL
notes: as for B1
B41: VH SEQ ID NO 586 / VL SEQ ID NO 366 (antibody, IgG4, V domains shown)
VH: B1 VH with R72V, A89L, P111Y
VL: B1 VL with I29L, H34A, Q42E, T51A
notes: as for B1
B42: VH SEQ ID NO 586 / VL SEQ ID NO 382 (antibody, IgG4, V domains shown)
VH: B1 VH with R72V, A89L, P111Y
VL: B1 VL with I29L, Q42E, T51A
notes: as for B1
B43: VH SEQ ID NO 586 / VL SEQ ID NO 390 (antibody, IgG4, V domains shown)
VH: B1 VH with R72V, A89L, P111Y
VL: B1 VL with I29V, H34A, Q42E, T51A
notes: as for B1
B44: VH SEQ ID NO 586 / VL SEQ ID NO 406 (antibody, IgG4, V domains shown)
VH: B1 VH with R72V, A89L, P111Y
VL: B1 VL with I29V, H34A, T51A, Q100A
notes: as for B1
B45: VH SEQ ID NO 586 / VL SEQ ID NO 414 (antibody, IgG4, V domains shown)
VH: B1 VH with R72V, A89L, P111Y
VL: B1 VL with I29V, H34A, T51A
notes: as for B1

Target: T1, recombinant human activated Factor VII …
Test: BLI (Fortebio)

Binder	Kd [nM]
B1	0.85
B2	14
B3	1.3
B4	48
B5	29
B6	20
B7	21
B8	2400
B9	16
B10	210
B11	24
B12	1.1
B13	1.1
B14	1.1
B15	1.9
B16	0.99
B17	1.1
B18	0.92
B19	17
B20	16
B21	22
B22	43
B23	21

Binder	Kd [nM]
B24	19
B25	30
B26	820
B27	25
B28	27
B29	25
B30	310
B31	23
B32	28
B33	24
B34	1500
B35	9.8
B36	9.9
B37	13
B38	18
B39	12
B40	11
B41	21
B42	17
B43	38
B44	19
B45	25
